# Patent publication US9969998B2, “Compositions of adenosine deaminase-2 (ADA2), variants thereof and methods of using same” (Halozyme, Inc., priority 2014, dated 2018)
# Columns and labels:
# [1] = Heparin binding ELISA (heparin coated microtiter plate); details: for Average OD450, heparin binding ELISA: Set 1, 3 μM protein; for Heparin Binding ELISA Average OD450: single and S265N combination variants (Table 34)
# Procedure, shortened: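 Plates coated with 200 μg/mL heparin in Na2CO3 buffer pH 9.6 overnight at 4° C, then milk-blocked. FLAG-tagged rHuADA2 variants added at 3 μM for 2 h at room temperature. Bound protein detected with HRP-anti-FLAG and TMB, read as OD450.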
# [2] = mouse, in vivo, iv, 7.5 mg/kg
# [3] = Spectrophotometric adenosine deaminase assay at varying pH (pH optimum); assay type: biochemical
# Protocol: Adenosine deaminase activity of rHuADA2 and variants at varying pH were assessed to determine the pH optimum of each. The adenosine deaminase activity was determined spectrophotometrically by direct measurement of changes in adenosine absorbance. […] During the deamination reaction, the absorbance of ADO decreases while that of INO increases with time. Since the dynamic changes in absorbance make it difficult to monitor activity at a single wavelength, the relative ADO activity was determined as a ratio of the ADO peak to isobestic point (i.e. the wavelength where ADO and INO have the same extinction coefficient). The isobestic point, which is 253 nm, remains unchanged and is concentration independent, so that it is the reference point to correct for volume or intensity discrepancies.
# To construct the standard curve for ADO and INO, a series of solution mixtures in 0.001% Tween-20 containing different concentrations of ADO and INO were prepared. The total concentration of ADO and INO mix was 50 μM, in 1×PBS (10 mM phosphate, 137 mM NaCl, 2.7 mM KCl), pH 7.4. The samples were scanned with the wavelengths between 220 nm and 300 nm to determine the isosbestic point, where all spectra cross.
# For performing the spectrophotometric adenosine deaminase assay of ADA2 and variants, a 2× solution containing 10 mM ADO in 100 mM potassium phosphate buffer (KPB), 0.1% Tween-20 at different pHs (i.e. 5.5, 6, 6.5, 6.75, 7, 7.25, 7.4, 7.75 and 8) were prepared. A separate 2× solution containing 2 μg/mL WT rHuADA2 or variants were prepared in the same 100 mM potassium phosphate buffer (KPB), 0.1% Tween-20 at the respective pH (i.e. 5.5, 6, 6.5, 6.75, 7, 7.25, 7.4, 7.75 and 8). An equal volume of the ADO solution and the ADA2 solution (wildtype or variants) were mixed to initiate reaction. At each time point (i.e. 1, 3, 5, 7, 9, 11, 13 and 15 min), a small aliquot (4 μl) was removed and diluted 50 times by adding to 196 μl 1×PBS, pH 7.4. The diluted samples were further diluted 2 fold (in duplicates) by adding 85 μl samples to 85 μl 1×PBS in a UV-transparent half area plate. The absorbance at 253 nm and 261 nm were measured of each diluted sample.
# Adenosine concentration was determined using the A261/A253 ratio and the standard curve. Adenosine deaminase activity was measured by negative change in ADO concentration per min×100.
# [4] = Heparin binding capture ELISA (biotin-heparin on streptavidin plate); details: PEGylated and non-PEGylated forms (Table 22)
# Protocol: Heparin binding of PEGylated rHuADA2 or variants was assessed by capture ELISA. Binding of rHuADA1 was assessed as a negative control. 100 μL of 0.2 mg/mL biotin-heparin (Sigma-Aldrich, St. Louis, Mo.; Cat No. B9806-10MG) was added to a streptavidin coated 96-well plate (Thermo Fisher Scientific, Rockford, Ill.; Cat. No. 15520), and incubated at room temperature for 1 hour. The plate was washed 6 times with PBS. Then, 150 μL of […] rHuADA2 was added to the heparin coated plate, titrated in 3× serial dilutions, and incubated at room temperature for 2 hours. The plate was then washed 6 times with PBS. A 1000× dilution of goat HRP-anti-FLAG pAb (Abcam, Cambridge, UK; Cat. No. Ab1238) was added to the ELISA plate and incubated at room temperature for 1 hour. The ELISA plate was then washed 6 times with phosphate buffered saline with Tween (PBST) and developed with the 3,3′,5,5′-Tetramethylbenzidine (TMB) substrate solution (Pierce, Thermo Fisher Scientific, Rockford, Ill.) according the manufacturer's instructions and reading the optical density at 450 nm (OD450) on a plate reader.
# [5] = Heparin-affinity chromatography (heparin-Sepharose, SDS-PAGE); assay type: binding; details: for Heparin Column Binding: compared to WT rHuADA2, 0.3 mg/mL protein
# Protocol: To assess binding of variants to heparin, heparin-affinity chromatography was employed to identify heparin-bound variants. Heparin binding was tested by mixing 35 μL of rHuADA2 WT and variants with 20 μL heparin-Sepharose™ resin (GE Healthcare, Pittsburgh, Pa.; Cat. No. 17-0998-01), followed by incubating at room temperature for 30 min. The mixture was then centrifuged through a 0.22 μm centrifuge filter and the flow-through, containing the unbound protein, was collected for analysis on an SDS-PAGE gel. 35 μL of 1.5 M NaCl was added to heparin-Sepharose resin and incubated at room temperature (RT) for 10 min to elute the remaining heparin-bound protein from the heparin-Sepharose. Samples of purified WT rHuADA2 and tested variants, before and after mixing with the heparin-Sepharose resin, were analyzed by SDS-PAGE to compare the degree of heparin binding.
Molecule,"Average OD450, heparin binding ELISA [1]",Heparin Binding ELISA Average OD450 [1],"Average OD450, heparin binding capture ELISA [4]",heparin binding compared to WT [5],Heparin Column Binding [5],binding to heparin-coated plates compared to WT ADA2 [1],AUC (mU * h)/mL [2],Half life slow (t1/2) [2],Percent increase in AUC compared to WT ADA2 [2],Percent increase in t1/2 compared to WT ADA2 [2],Adenosine deaminase activity Δ [ADO]/min × (−100) ([3]; pH 5.5),Adenosine deaminase activity Δ [ADO]/min × (−100) ([3]; pH 6),Adenosine deaminase activity Δ [ADO]/min × (−100) ([3]; pH 6.5),Adenosine deaminase activity Δ [ADO]/min × (−100) ([3]; pH 6.75),Adenosine deaminase activity Δ [ADO]/min × (−100) ([3]; pH 7),Adenosine deaminase activity Δ [ADO]/min × (−100) ([3]; pH 7.25),Adenosine deaminase activity Δ [ADO]/min × (−100) ([3]; pH 7.4),Adenosine deaminase activity Δ [ADO]/min × (−100) ([3]; pH 7.75),Adenosine deaminase activity Δ [ADO]/min × (−100) ([3]; pH 8),"pH optimum (highest deaminase activity) ([3]; pH 5.5 to 8, 5 mM ADO)"
"K374D: ADA2 variant SEQ ID NO:20 (protein, human ADA2 K371D, mature numbering) IDETRAHLLLKEKMMRLGGRLVLNTKEELANERLMTLKIAEMKEAMRTLIFPPSMHFFQAKHLIERSQVFNILRMMPKGAALHLHDIGIVTMDWLVRNVTYRPHCHICFTPRGIMQFRFAHPTPRPSEKCSKWILLEDYRKRVQNVTEFDDSLLRNFTLVTQHPEVIYTNQNVVWSKFETIFFTISGLIHYAPVFRDYVFRSMQEFYEDNVLYMEIRARLLPVYELSGEHHDEEWSVKTYQEVAQKFVETHPEFIGIKIIYSDHRSKDVAVIAESIRMAMGLRIKFPTVVAGFDLVGHEDTGHSLHDYKEALMIPAKDGVKLPYFFHAGETDWQGTSIDRNILDALMLNTTRIGHGFALSKHPAVRTYSWDKDIPIEVCPISNQVLKLVSDLRNHPVATLMATGHPMVISSDDPAMFGAKGLSYDFYEVFMGIGGMKADLRTLKQLAMNSIKYSTLLESEKNTFMEIWKKRWDKFIADVATK",0.15,0.87,0.87,attenuated heparin binding,Reduced,attenuated binding to heparin,"74,983 (mU * h)/mL",3.8 h,128%,230%,12.19,10.68,14.22,12.90,13.22,12.86,10.55,1.55,3.46,–
"S265N: ADA2 variant SEQ ID NO:54 (protein, human ADA2 S262N, mature numbering) IDETRAHLLLKEKMMRLGGRLVLNTKEELANERLMTLKIAEMKEAMRTLIFPPSMHFFQAKHLIERSQVFNILRMMPKGAALHLHDIGIVTMDWLVRNVTYRPHCHICFTPRGIMQFRFAHPTPRPSEKCSKWILLEDYRKRVQNVTEFDDSLLRNFTLVTQHPEVIYTNQNVVWSKFETIFFTISGLIHYAPVFRDYVFRSMQEFYEDNVLYMEIRARLLPVYELSGEHHDEEWSVKTYQEVAQKFVETHPEFIGIKIIYNDHRSKDVAVIAESIRMAMGLRIKFPTVVAGFDLVGHEDTGHSLHDYKEALMIPAKDGVKLPYFFHAGETDWQGTSIDRNILDALMLNTTRIGHGFALSKHPAVRTYSWKKDIPIEVCPISNQVLKLVSDLRNHPVATLMATGHPMVISSDDPAMFGAKGLSYDFYEVFMGIGGMKADLRTLKQLAMNSIKYSTLLESEKNTFMEIWKKRWDKFIADVATK",–,0.88,–,–,–,attenuated binding to heparin coated plates,–,–,–,–,24.61,31.59,41.30,44.46,45.16,50.99,45.81,25.16,3.70,7.25

# More lines, main results first:
"Average OD450, heparin binding ELISA [1]",Heparin Binding ELISA Average OD450 [1],"Average OD450, heparin binding capture ELISA [4]",heparin binding compared to WT [5],Heparin Column Binding [5],Molecule,binding to heparin-coated plates compared to WT ADA2 [1],AUC (mU * h)/mL [2],Half life slow (t1/2) [2],Percent increase in AUC compared to WT ADA2 [2],Percent increase in t1/2 compared to WT ADA2 [2],Adenosine deaminase activity Δ [ADO]/min × (−100) ([3]; pH 5.5),Adenosine deaminase activity Δ [ADO]/min × (−100) ([3]; pH 6),Adenosine deaminase activity Δ [ADO]/min × (−100) ([3]; pH 6.5),Adenosine deaminase activity Δ [ADO]/min × (−100) ([3]; pH 6.75),Adenosine deaminase activity Δ [ADO]/min × (−100) ([3]; pH 7),Adenosine deaminase activity Δ [ADO]/min × (−100) ([3]; pH 7.25),Adenosine deaminase activity Δ [ADO]/min × (−100) ([3]; pH 7.4),Adenosine deaminase activity Δ [ADO]/min × (−100) ([3]; pH 7.75),Adenosine deaminase activity Δ [ADO]/min × (−100) ([3]; pH 8),"pH optimum (highest deaminase activity) ([3]; pH 5.5 to 8, 5 mM ADO)"
–,–,0.15,–,–,"PEG-K374D: rHuADA2-K374D (SEQ ID NO:20) PEGylated on surface exposed lysines with linear PEG-20K (conjugate, linear PEG-20K on surface lysines; human ADA2 K371D, mature numbering) IDETRAHLLLKEKMMRLGGRLVLNTKEELANERLMTLKIAEMKEAMRTLIFPPSMHFFQAKHLIERSQVFNILRMMPKGAALHLHDIGIVTMDWLVRNVTYRPHCHICFTPRGIMQFRFAHPTPRPSEKCSKWILLEDYRKRVQNVTEFDDSLLRNFTLVTQHPEVIYTNQNVVWSKFETIFFTISGLIHYAPVFRDYVFRSMQEFYEDNVLYMEIRARLLPVYELSGEHHDEEWSVKTYQEVAQKFVETHPEFIGIKIIYSDHRSKDVAVIAESIRMAMGLRIKFPTVVAGFDLVGHEDTGHSLHDYKEALMIPAKDGVKLPYFFHAGETDWQGTSIDRNILDALMLNTTRIGHGFALSKHPAVRTYSWDKDIPIEVCPISNQVLKLVSDLRNHPVATLMATGHPMVISSDDPAMFGAKGLSYDFYEVFMGIGGMKADLRTLKQLAMNSIKYSTLLESEKNTFMEIWKKRWDKFIADVATK",–,"2,725,000 (mU * h)/mL",21.75 h,8187%,1791%,–,–,–,–,–,–,–,–,–,–
0.11,0.03,–,attenuated heparin binding,Reduced,"K374E: ADA2 variant SEQ ID NO:21 (protein, human ADA2 K371E, mature numbering) IDETRAHLLLKEKMMRLGGRLVLNTKEELANERLMTLKIAEMKEAMRTLIFPPSMHFFQAKHLIERSQVFNILRMMPKGAALHLHDIGIVTMDWLVRNVTYRPHCHICFTPRGIMQFRFAHPTPRPSEKCSKWILLEDYRKRVQNVTEFDDSLLRNFTLVTQHPEVIYTNQNVVWSKFETIFFTISGLIHYAPVFRDYVFRSMQEFYEDNVLYMEIRARLLPVYELSGEHHDEEWSVKTYQEVAQKFVETHPEFIGIKIIYSDHRSKDVAVIAESIRMAMGLRIKFPTVVAGFDLVGHEDTGHSLHDYKEALMIPAKDGVKLPYFFHAGETDWQGTSIDRNILDALMLNTTRIGHGFALSKHPAVRTYSWEKDIPIEVCPISNQVLKLVSDLRNHPVATLMATGHPMVISSDDPAMFGAKGLSYDFYEVFMGIGGMKADLRTLKQLAMNSIKYSTLLESEKNTFMEIWKKRWDKFIADVATK",attenuated binding to heparin,–,–,–,–,15.76,19.15,27.09,25.72,24.63,21.88,18.32,5.98,4.25,–
